According to patent US20090118184A1 (UNIVERSITY OF ROCHESTER, published 2009):
Residue numbers refer to the chain shown, from its start.

Tests used:
Assay in all cases: cell-based or functional assay
[1] = molecular target: T1, factor VIIIa A1/A3C1C2 dimer, E113A and E1984V (human, UniProt P00451 20-391; P00451 1709-2351)
T1 chain 1: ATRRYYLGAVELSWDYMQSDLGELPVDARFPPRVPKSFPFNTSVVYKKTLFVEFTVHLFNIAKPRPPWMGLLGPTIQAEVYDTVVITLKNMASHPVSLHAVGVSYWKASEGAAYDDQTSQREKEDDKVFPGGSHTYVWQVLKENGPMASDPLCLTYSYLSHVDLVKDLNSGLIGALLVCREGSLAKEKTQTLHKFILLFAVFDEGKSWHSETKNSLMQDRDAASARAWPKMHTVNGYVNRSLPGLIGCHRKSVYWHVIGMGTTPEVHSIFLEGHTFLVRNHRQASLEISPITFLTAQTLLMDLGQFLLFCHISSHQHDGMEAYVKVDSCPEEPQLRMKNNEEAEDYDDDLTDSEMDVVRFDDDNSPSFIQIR
T1 chain 2: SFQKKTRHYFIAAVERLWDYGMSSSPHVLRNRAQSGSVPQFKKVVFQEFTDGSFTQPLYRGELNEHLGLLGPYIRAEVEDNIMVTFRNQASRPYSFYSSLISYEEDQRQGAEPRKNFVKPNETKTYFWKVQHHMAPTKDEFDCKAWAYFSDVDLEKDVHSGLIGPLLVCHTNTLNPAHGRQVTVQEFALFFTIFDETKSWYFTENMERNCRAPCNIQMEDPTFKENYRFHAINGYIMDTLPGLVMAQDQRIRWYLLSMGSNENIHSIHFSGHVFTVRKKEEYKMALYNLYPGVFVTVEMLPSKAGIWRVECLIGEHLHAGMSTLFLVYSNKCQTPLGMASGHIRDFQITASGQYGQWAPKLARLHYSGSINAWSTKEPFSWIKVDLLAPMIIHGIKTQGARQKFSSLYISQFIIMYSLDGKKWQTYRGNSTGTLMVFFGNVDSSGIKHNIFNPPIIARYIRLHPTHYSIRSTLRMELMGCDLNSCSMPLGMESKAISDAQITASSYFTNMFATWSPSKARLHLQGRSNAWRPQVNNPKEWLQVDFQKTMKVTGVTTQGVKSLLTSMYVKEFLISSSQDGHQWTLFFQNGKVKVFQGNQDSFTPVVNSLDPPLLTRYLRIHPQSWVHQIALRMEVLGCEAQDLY

[2] = molecular target: T2, factor VIIIa A1/A3C1C2 dimer, wild type (human, UniProt P00451 20-391; P00451 1709-2351)
T2 sequence 1: T1 chain 1 with A113E
T2 sequence 2: T1 chain 2 with V295E

[3] = molecular target: T3, factor VIIIa A1/A3C1C2 dimer, Glu272Val (human, UniProt P00451 20-391; P00451 1709-2351)
T3 chain 1: T1 chain 1 with A113E, E272V
T3 chain 2: T1 chain 2 with V295E

Decay rate relative to wild type, Factor VIIIa (1.5 nM, factor IXa absent) [1]: 0.4 relative to wild type
Decay rate, Factor VIIIa (1.5 nM factor VIIIa, factor IXa absent) [1]: 0.0567 min⁻¹
Factor VIIIa Decay relative to the WT value, Factor IXa absent [2]: 1 relative to WT
Factor VIIIa Decay relative to the WT value, Factor IXa present [2]: 1 relative to WT
Factor VIIIa Decay, Factor IXa absent [2]: 0.0836 min⁻¹
Factor VIIIa Decay, Factor IXa present [2]: 0.0154 min⁻¹
Factor VIIIa Decay relative to the WT value, Factor IXa absent [3]: 2.72 relative to WT
Factor VIIIa Decay relative to the WT value, Factor IXa present [3]: 1.03 relative to WT
Factor VIIIa Decay, Factor IXa absent [3]: 0.227 min⁻¹
Factor VIIIa Decay, Factor IXa present [3]: 0.0159 min⁻¹
B1: factor VIIIa A2 subunit, wild type (other)
chain: SVAKKHPKTWVHYIAAEEEDWDYAPLVLAPDDRSYKSQYLNNGPQRIGRKYKKVRFMAYTDETFKTREAIQHESGILGPLLYGEVGDTLLIIFKNQASRPYNIYPHGITDVRPLYSRRLPKGVKHLKDFPILPGEIFKYKWTVTVEDGPTKSDPRCLTRYYSSFVNMERDLASGLIGPLLICYKESVDQRGNQIMSDKRNVILFSVFDENRSWYLTENIQRFLPNPAGVQLEDPEFQASNIMHSINGYVFDSLQLSVCLHEVAYWYILSIGAQTDFLSVFFSGYTFKHKMVYEDTLTLFPFSGETVFMSMENPGLWILGCHNSDFRNRGMTALLKVSSCDKNTGDYYEDSYEDISAYLLSKNNAIEPR
